{"source": "paper PMC4404502", "origin": "cited, not measured here", "molecular_target": "Asp11 (position 11, …)", "experiment": "fluorescence", "settings": "membrane-inserted helix"}
{"protein": "KKGLLLLLLLDLWLLLLLLLLLKKA", "note": "[pL(D11) poly-Leu transmembrane model peptide (synthetic construct)]", "values": [{"measurement": "pKa", "result": 8.7}]}
